Data as given in patent publication US20250163146A1, “SINGLE-DOMAIN ANTIBODIES (NANOBODIES) TARGETING THE NOTCH LIGAND DLL4 AND METHODS OF THEIR USE” (H. LEE MOFFITT CANCER CENTER AND RESEARCH INSTITUTE, INC., priority 2022, published 2025).

What was measured:
[1] = target: T1, mouse DLL4 (Mus musculus, UniProt Q9JI71); experiment: Yeast-displayed nanobody clones stained with biotinylated mDLL4 and SA-647, flow cytometry; assay type: binding; details: yeast display, biotinylated mDLL4 (N-EGF3), SA-647, FIG. 1
T1 construct: The mDLL4 protein was a truncation that contained the C2, DSL, and EGF1-3 domains (DLL4 (N-EGF3)); biotin (protein is biotinylated)
Method: 162. To isolate binding molecules that interrupted the interaction of DLL4 and Notch1, we performed several rounds of selection using decreasing concentrations of biotinylated murine DLL4 protein. The mDLL4 protein was a truncation that contained the C2, DSL, and EGF1-3 domains (DLL4 (N-EGF3)). To perform a selection, the library was stained with biotinylated mDLL4, washed, incubated with streptavidin-647, washed, and then binders isolated selected using either (a) magnetic beads coated with an anti-647 antibody or (b) FACS. The mDLL4-binding yeast were then plated so that individual colonies could be picked and cultured to isolate individual clones. The clones were then each stained with mDLL4 and SA-647 and analyzed by flow cytometry to confirm that they bound to mDLL4. (FIG. 1).

[2] = target: T2, DLL4 (Homo sapiens, UniProt Q9NR61); experiment: Cross-reactivity: yeast expressing each nanobody stained with biotinylated human DLL4 (N-EGF3), flow cytometry; assay type: binding; design: stained with biotinylated human DLL4 (N-EGF3); biotin (protein is biotinylated); details: yeast display, SA-647, FIG. 2
Method: 163. The eight anti-DLL4 nanobody clones were then tested for cross-reactivity between human and mouse DLL4. Yeast cells expressing each nanobody were stained with biotinylated human DLL4 (N-EGF3), washed, stained with SA-647, and then analyzed by flow cytometry.
Target sequence in this assay (Q9NR61 27-322 limits assumed): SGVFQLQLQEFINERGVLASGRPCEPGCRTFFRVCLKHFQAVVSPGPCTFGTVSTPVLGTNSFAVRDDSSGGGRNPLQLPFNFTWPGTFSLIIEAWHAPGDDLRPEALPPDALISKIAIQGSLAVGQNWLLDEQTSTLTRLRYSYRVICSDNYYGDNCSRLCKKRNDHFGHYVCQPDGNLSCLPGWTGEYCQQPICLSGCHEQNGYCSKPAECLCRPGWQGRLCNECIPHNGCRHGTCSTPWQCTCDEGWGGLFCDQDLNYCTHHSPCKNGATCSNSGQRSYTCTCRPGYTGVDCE

[3] = target: hDLL4: hNotch1 complexes (Homo sapiens, UniProt Q9NR61); experiment: Yeast expressing nanobody stained with unlabeled hDLL4 + biotinylated hNotch1 (6-13), flow cytometry (inhibition of hNotch1 binding to hDLL4); details: FIG. 3
Method: (§1) 164. Next, we tested four cross-reactive nanobodies (A7, C4, C5, and B1) for their ability to inhibit binding of hNotch1 to hDLL4 (FIG. 3). Yeast expressing each nanobody were stained with either biotinylated hDLL4 (N-3) or unlabled hDLL4+biotinylated hNotch1 EGF domains 6-13 (hNotch1 (6-13)). The yeast were then washed, incubated with SA-647, and analyzed by flow cytometry.

[4] = tested on: DLL4-mediated Notch activation (hNotch1); experiment: Plate-bound ligand stimulation assay, Notch1 H2B-citrine reporter cells on recombinant human DLL4; assay type: cell-based; details: nanobody-Fc fusions, plates coated with human DLL4 (C2, DSL, EGF1-5), FIG. 6
Description: 167. To determine if the C4 and C5 nanobodies inhibit DLL4-mediated Notch activation. Notch1 reporter H2B-citrine reporter cells were transferred to 96-well plates coated with recombinant human DLL4 protein containing the C2, DSL, and EGF1-5 domains in the presence or absence of nanobody-Fc fusions.

[5] = target: T2, DLL4; experiment: Yeast expressing nanobody stained with biotinylated hDLL4 (N-3) alone, flow cytometry; assay type: binding; design: stained with biotinylated human DLL4 (N-EGF3); details: yeast display, FIG. 3
Method: as §1
Target sequence in this assay (Q9NR61 27-322 limits assumed): as above

[6] = target: T2, DLL4; experiment: SPR monomer affinity; assay type: binding; details: preliminary, FIG. 8
Description: (§2) 168. We the investigated the C4 nanobody following affinity maturation and found a second nanobody Nb.d4C4v2. To identify the similarity between the parent C4 and the variant C4v2 clone the sequences of each nanobody was compared (FIG. 7). We also investigated the affinity of the C4 nanobody. […] Moreover, inhibition in plate-bound and co-culture formats in the presence of CHO-hNotch1 reporter cell line and with or without cells expressing DLL4 indicate a low-nanomolar IC50 similar to DAPT, indicating affinity-matured Nb.d4C4v2 is a clinical candidate (FIGS. 9 and 10).
Target sequence in this assay (Q9NR61 27-685, species assumed): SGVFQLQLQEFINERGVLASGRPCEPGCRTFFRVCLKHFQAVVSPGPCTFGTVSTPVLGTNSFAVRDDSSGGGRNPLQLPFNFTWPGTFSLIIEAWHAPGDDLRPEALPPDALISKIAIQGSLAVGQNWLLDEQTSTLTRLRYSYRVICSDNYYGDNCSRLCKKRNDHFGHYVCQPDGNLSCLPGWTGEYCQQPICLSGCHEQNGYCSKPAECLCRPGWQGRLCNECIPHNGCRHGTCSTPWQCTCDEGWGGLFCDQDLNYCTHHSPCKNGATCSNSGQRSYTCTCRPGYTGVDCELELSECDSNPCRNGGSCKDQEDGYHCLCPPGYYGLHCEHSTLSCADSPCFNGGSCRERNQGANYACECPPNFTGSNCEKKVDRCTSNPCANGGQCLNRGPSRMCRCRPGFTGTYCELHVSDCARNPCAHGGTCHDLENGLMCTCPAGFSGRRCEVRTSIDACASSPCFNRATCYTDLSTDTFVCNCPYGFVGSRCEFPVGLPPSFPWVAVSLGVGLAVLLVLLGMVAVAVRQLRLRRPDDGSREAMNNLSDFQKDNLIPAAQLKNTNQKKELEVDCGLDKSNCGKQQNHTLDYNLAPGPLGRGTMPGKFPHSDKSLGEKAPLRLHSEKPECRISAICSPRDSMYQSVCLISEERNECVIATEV

[7] = tested on: hNotch1; experiment: Inhibition in plate-bound and co-culture formats with CHO-hNotch1 reporter cell line; assay type: cell-based, human; details: preliminary
Description: as §2

T1 sequence (Q9JI71 27-323 limits assumed): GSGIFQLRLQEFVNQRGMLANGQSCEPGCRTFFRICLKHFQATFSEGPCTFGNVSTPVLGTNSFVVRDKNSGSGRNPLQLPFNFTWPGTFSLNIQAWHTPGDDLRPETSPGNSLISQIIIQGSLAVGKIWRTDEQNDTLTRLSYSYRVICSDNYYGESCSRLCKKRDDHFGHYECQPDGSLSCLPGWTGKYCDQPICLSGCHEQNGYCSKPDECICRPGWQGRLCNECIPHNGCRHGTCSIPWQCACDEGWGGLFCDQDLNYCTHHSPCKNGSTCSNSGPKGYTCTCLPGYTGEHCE
hDLL4: hNotch1 complexes, sequence (Q9NR61 27-322 limits assumed, one chain of several): as the sequence (Q9NR61 27-322 limits assumed) above

Row | Molecule | binding to mouse DLL4 [1] | cross-reactivity with human DLL4 [2] | further results
1 | clone A7: anti-DLL4 nanobody isolated from the yeast library, SEQ ID NO: 24 (protein) VHH: QVQLQESGGGLVQAGGSLRLSCAASGNIFYTYSMGWYRQAPGKEREFVAAISAGTITYYADSVKGRFTISRDNAKNTVYLQMNSLKPEDTAVYYCAVFAPRDVIHYYWGQGTQVTVSSGSYPYDVPDYAQTSSPSTEAS | bound mouse DLL4 | cross reacted with human DLL4 | –
2 | clone A8: anti-DLL4 nanobody isolated from the yeast library, SEQ ID NO: 4 (protein) VHH: QVQLQESGGGLVQAGGSLRLSCAASGTIFEERVMGWYRQAPGKEREFVAGIASGAITYYADSVKGRFTISRDNAKNTVYLQMNSLKPEDTAVYYCAAQGYSFKTKPDYSAYVLVYWGQGTQVTVSSGSYPYDVPDYAQTSSPSTEAS | bound mouse DLL4 | – | –
3 | clone A9: anti-DLL4 nanobody isolated from the yeast library, SEQ ID NO: 8 (protein) VHH: QVQLQESGGGLVQAGGSLRLSCAASGTISQDSGMGWYRQAPGKEREFVAGITAGSITYYADSVKGRFTISRDNAKNTVYLQMNSLKPEDTAVYYCAASYVSVQAHTYWGQGTQVTVSSGSYPYDVPDYAQTSSPSTEAS | bound mouse DLL4 | – | –
4 | clone B1: anti-DLL4 nanobody isolated from the yeast library, SEQ ID NO: 12 (protein) VHH: QVQLQESGGGLVQAGGSLRLSCAASGTIFYSSDMGWYRQAPGKEREFVAGINRGSTTYYADSVKGRFTISRDNAKNTVYLQMNSLKPEDTAVYYCAVVSDVLTRLFYWGQGTQVTVSSGSYPYDVPDYAQTSSPSTEAS | bound mouse DLL4 | cross reacted with human DLL4 | –
5 | clone B4: anti-DLL4 nanobody isolated from the yeast library, SEQ ID NO: 16 (protein) VHH: QVQLQESGGGLVQAGGSLRLSCAASGNISVWIPMGWYRQAPGKEREFVASIGEGSTTYYADSVKGRFTISRDNAKNTVYLQMNSLKPEDTAVYYCAVPYYGHSDYDYWGQGTQVTVSSGSYPYDVPDYAQTSSPSTEAS | bound mouse DLL4 | – | –
6 | clone C2: anti-DLL4 nanobody isolated from the yeast library, SEQ ID NO: 28 (protein) VHH: QVQLQESGGGLVQAGGSLRLSCAASGSISVVYGMGWYRQAPGKEREFVAGISYGGSTYYADSVKGRFTISRDNAKNTVYLQMNSLKPEDTAVYYCAVDASYWDTLVYWGQGTQVTVSSGSYPYDVPDYAQTSSPSTEAS | bound mouse DLL4 | – | –
7 | clone C5: anti-DLL4 nanobody isolated from the yeast library, SEQ ID NO: 20 (protein) VHH: QVQLQESGGGLVQAGGSLRLSCAASGNISTGTAMGWYRQAPGKEREFVAGIAYGATTYYADSVKGRFTISRDNAKNTVYLQMNSLKPEDTAVYYCAVEVSQSTPGGRYSVAYLIYWGQGTQVTVSSGSYPYDVPDYAQTSSPSTEAS | bound mouse DLL4 | cross reacted with human DLL4 | binding to hDLL4: hNotch1 complexes [3]: not to hDLL4: hNotch1 complexes; reduction in reporter activity (hNotch1 activation) [4]: dose-dependent reduction in reporter activity; binding to hDLL4 alone [5]: bound robustly
8 | clone C4: anti-DLL4 nanobody isolated from the yeast library, SEQ ID NO: 32; nanobody d4C4 SEQ ID NO: 36 (protein) VHH: QVQLQESGGGLVQAGGSLRLSCAASGSISGDVEMGWYRQAPGKEREFVAGINDGGNTYYADSVKGRFTISRDNAKNTVYLQMNSLKPEDTAVYYCAVSTTYPSYNESQYADWLAYWGQGTQVTVSSGSYPYDVPDYAQTSSPSTEAS | – | cross reacted with human DLL4 | binding to hDLL4: hNotch1 complexes [3]: not to hDLL4: hNotch1 complexes; reduction in reporter activity (hNotch1 activation) [4]: dose-dependent reduction in reporter activity; monomer affinity [6]: low nanomolar to picomolar range; binding to hDLL4 alone [5]: bound robustly
9 | Nb.d4C4v2: affinity-matured variant of the C4 nanobody, SEQ ID NO: 39 (SEQ ID NO: 41 with flanking sequence) (protein) VHH: QVQLQESGGGLVQAGGSLRLSCAASGSISGDVEMGWYRQAPGKEREFVAGINDGGNIYYADNVEGRFTISRDNAKNTVYLQMNSLKPEDTAVYYCAVSTTYPSYNESQYADWIAYWGQGAQVTVSS | – | – | IC50 ([7]; CHO-hNotch1 reporter cell line and cells expressing DLL4, similar to DAPT, FIG. 10): low-nanomolar; IC50 ([7]; CHO-hNotch1 reporter cell line, without cells expressing DLL4, similar to DAPT, FIG. 9): low-nanomolar
